B1: library; numbered along this chain (parent)
chain: MNIQIGELAKRTACPVVTIRFYEQEGLLPPPGRSRGNFRLYGEEHVERLQFIRHCRSLDMPLSDVRTLLSYRKRPDQDCGEVNMLLDEHIRQVESRIGALLELKHHLVELREACSGARPAQSCGILQGLSDCVCDTRGTTAHPSD

Data set [1] covers variants of B1. Put plainly: sfGFP reporter fluorescence (15 h) (µM FITC); higher = higher leak. As to conditions: library round: Round 1; ligand: none. As to the method:
(§1)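 Cell-free biosensing: 1 µL Echo-assembled CFE reactions with linear PbrR variant templates (5 nM) and pPbrR-sfGFP reporter, with 1 µM Pb, 30 µM Zn or no ligand; endpoint sfGFP fluorescence after 15 h at 30 °C calibrated as µM FITC. Round 1 ML-predicted PbrR mutants; 3 biological replicates.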

The variants in data set [2] derive from B1. The data set can be described thus: sfGFP reporter fluorescence (15 h) (µM FITC); higher = stronger transcriptional activation. As to conditions: library round: Round 1. Here is the method:
as §1

± gives the standard deviation of the averaged measurements.

On to R39F V46C, for which the sfGFP reporter fluorescence in data set [1] amounted to 0.065 ± 0.0013; in data set [2] (ligand: 1 µM Pb) it was 0.0632 ± 0.0031; in data set [2] (ligand: 30 µM Zn) it was 0.0655 ± 0.0018.

R91A K104V: the sfGFP reporter fluorescence in data set [1] turned out to be 0.0657 ± 0.0027; in data set [2] (ligand: 1 µM Pb), 0.119 ± 0.002; in data set [2] (ligand: 30 µM Zn), 0.748 ± 0.029.

In the case of R96S, the sfGFP reporter fluorescence stood at 0.0636 ± 0.0021 in data set [1], 0.0924 ± 0.0049 in data set [2] (ligand: 1 µM Pb) and 0.328 ± 0.015 in data set [2] (ligand: 30 µM Zn).

For P61S G128I D131C, the sfGFP reporter fluorescence is 0.12 ± 0.0019 in data set [1], 0.286 ± 0.053 in data set [2] (ligand: 1 µM Pb) and 1.25 ± 0.2 in data set [2] (ligand: 30 µM Zn).

Turning to N83T I97S K104G, the sfGFP reporter fluorescence in data set [1] amounted to 0.0612 ± 0.0026; in data set [2] (ligand: 1 µM Pb), 0.076 ± 0.0097; in data set [2] (ligand: 30 µM Zn), 0.102 ± 0.0094.

For the variant P61N D131Y, the sfGFP reporter fluorescence in data set [1] was determined as 0.0734 ± 0.00076; in data set [2] (ligand: 1 µM Pb) it was 0.115 ± 0.0094; in data set [2] (ligand: 30 µM Zn) it was 0.59 ± 0.078.

For L110I D135A, the results for the sfGFP reporter fluorescence in data set [1], in data set [2] (ligand: 1 µM Pb) and in data set [2] (ligand: 30 µM Zn) were 0.0608 ± 0.00097, 0.0588 ± 0.0053 and 1.94 ± 0.1, respectively.

As to L107I C114R, the figures for the sfGFP reporter fluorescence in data set [1], in data set [2] (ligand: 1 µM Pb) and in data set [2] (ligand: 30 µM Zn) were 0.059 ± 0.0019, 0.0512 ± 0.0044 and 0.0514 ± 0.00092, respectively.

With D131S D135P, the sfGFP reporter fluorescence stood at 0.0663 ± 0.0043 in data set [1], 0.105 ± 0.0076 in data set [2] (ligand: 1 µM Pb) and 0.547 ± 0.082 in data set [2] (ligand: 30 µM Zn).

Take D64K N83S I90N: the figures for the sfGFP reporter fluorescence in data set [1], in data set [2] (ligand: 1 µM Pb) and in data set [2] (ligand: 30 µM Zn) were 0.0679 ± 0.0014, 0.223 ± 0.065 and 0.737 ± 0.02, respectively.

Consider D64T R111F, for which the sfGFP reporter fluorescence in data set [1] worked out at 0.09114 ± 0.00056; in data set [2] (ligand: 1 µM Pb), 0.181 ± 0.022; in data set [2] (ligand: 30 µM Zn), 1.71 ± 0.025.

Take D64T R111A: the sfGFP reporter fluorescence came out at 0.173 ± 0.0098 in data set [1], 0.246 ± 0.078 in data set [2] (ligand: 1 µM Pb) and 2.17 ± 0.2 in data set [2] (ligand: 30 µM Zn).

Turning to H105E, the sfGFP reporter fluorescence came out at 0.0625 ± 0.0011 in data set [1], 0.06829 ± 0.00056 in data set [2] (ligand: 1 µM Pb) and 0.31 ± 0.016 in data set [2] (ligand: 30 µM Zn).

With N83T D135V P143A, the sfGFP reporter fluorescence was determined as 0.0633 ± 0.0021 in data set [1], 0.0745 ± 0.0035 in data set [2] (ligand: 1 µM Pb) and 0.189 ± 0.0083 in data set [2] (ligand: 30 µM Zn).

With N83T P143W, the sfGFP reporter fluorescence turned out to be 0.0657 ± 0.0018 in data set [1], 0.07806 ± 0.00064 in data set [2] (ligand: 1 µM Pb) and 0.131 ± 0.0017 in data set [2] (ligand: 30 µM Zn).

As to N83T P143R, the sfGFP reporter fluorescence in data set [1] was determined as 0.0618 ± 0.0013; in data set [2] (ligand: 1 µM Pb), 0.0709 ± 0.0047; in data set [2] (ligand: 30 µM Zn) it was 0.145 ± 0.0075.

For D131H D135K, the sfGFP reporter fluorescence in data set [1] came to 0.0669 ± 0.0015; in data set [2] (ligand: 1 µM Pb) it was 0.0876 ± 0.0064; in data set [2] (ligand: 30 µM Zn), 0.579 ± 0.071.

For D131A D135S, the values for the sfGFP reporter fluorescence in data set [1], in data set [2] (ligand: 1 µM Pb) and in data set [2] (ligand: 30 µM Zn) were 0.0699 ± 0.0026, 0.0955 ± 0.0012 and 0.604 ± 0.0087, respectively.

Turning to D131A D135E, the sfGFP reporter fluorescence in data set [1] was 0.06499 ± 0.00042; in data set [2] (ligand: 1 µM Pb) it was 0.0805 ± 0.0086; in data set [2] (ligand: 30 µM Zn) it was 0.571 ± 0.06.

Regarding D131A D135P, the sfGFP reporter fluorescence turned out to be 0.0689 ± 0.0013 in data set [1], 0.119 ± 0.0078 in data set [2] (ligand: 1 µM Pb) and 0.654 ± 0.017 in data set [2] (ligand: 30 µM Zn).

Take V108I D131C: the sfGFP reporter fluorescence in data set [1] is 0.0613 ± 0.0026; in data set [2] (ligand: 1 µM Pb), 0.0713 ± 0.0046; in data set [2] (ligand: 30 µM Zn), 0.134 ± 0.0021.

In the case of M60L P61N D64K K104V L107E G128I, the figures for the sfGFP reporter fluorescence in data set [1], in data set [2] (ligand: 1 µM Pb) and in data set [2] (ligand: 30 µM Zn) were 0.0622 ± 0.0024, 0.0589 ± 0.0018 and 0.0596 ± 0.0016, respectively.

On to I90L D135A, for which the sfGFP reporter fluorescence in data set [1] was determined as 0.0614 ± 0.0011; in data set [2] (ligand: 1 µM Pb) it was 0.0634 ± 0.0038; in data set [2] (ligand: 30 µM Zn) it was 0.207 ± 0.0065.

N83M D135A: the figures for the sfGFP reporter fluorescence in data set [1], in data set [2] (ligand: 1 µM Pb) and in data set [2] (ligand: 30 µM Zn) were 0.0564 ± 0.0017, 0.102 ± 0.0031 and 0.07 ± 0.0044, respectively.

Regarding M60L D64K D135S, the sfGFP reporter fluorescence is 0.29 ± 0.02 in data set [1], 0.662 ± 0.097 in data set [2] (ligand: 1 µM Pb) and 1.93 ± 0.17 in data set [2] (ligand: 30 µM Zn).

Take D64K V108E: the sfGFP reporter fluorescence was determined as 0.0746 ± 0.0013 in data set [1], 0.165 ± 0.015 in data set [2] (ligand: 1 µM Pb) and 1.42 ± 0.1 in data set [2] (ligand: 30 µM Zn).

On to L107E G128I, for which the results for the sfGFP reporter fluorescence in data set [1], in data set [2] (ligand: 1 µM Pb) and in data set [2] (ligand: 30 µM Zn) were 0.0629 ± 0.0025, 0.0633 ± 0.0023 and 0.0621 ± 0.0022, respectively.

On to N83T L107Y, for which the sfGFP reporter fluorescence was 0.0672 ± 0.0015 in data set [1], 0.0739 ± 0.0066 in data set [2] (ligand: 1 µM Pb) and 0.0947 ± 0.0046 in data set [2] (ligand: 30 µM Zn).

On to L85I P143M, for which the sfGFP reporter fluorescence in data set [1] worked out at 0.058 ± 0.0019; in data set [2] (ligand: 1 µM Pb), 0.0691 ± 0.0018; in data set [2] (ligand: 30 µM Zn) it was 0.401 ± 0.029.

As to L28V C134T, the sfGFP reporter fluorescence is 0.06536 ± 0.00042 in data set [1], 0.0943 ± 0.0028 in data set [2] (ligand: 1 µM Pb) and 0.646 ± 0.022 in data set [2] (ligand: 30 µM Zn).

Take I125L D131A D135A: the sfGFP reporter fluorescence in data set [1] turned out to be 0.065 ± 0.0029; in data set [2] (ligand: 1 µM Pb), 0.0661 ± 0.0051; in data set [2] (ligand: 30 µM Zn), 0.0699 ± 0.0045.

Take R20W R111L: the sfGFP reporter fluorescence in data set [1] is 0.06866 ± 0.00056; in data set [2] (ligand: 1 µM Pb), 0.0663 ± 0.0045; in data set [2] (ligand: 30 µM Zn), 0.0727 ± 0.0011.

As for G128I D131S, the sfGFP reporter fluorescence in data set [1] came out at 0.0878 ± 0.004; in data set [2] (ligand: 1 µM Pb) it was 0.253 ± 0.025; in data set [2] (ligand: 30 µM Zn), 1.43 ± 0.2.

With G128I D131C, the sfGFP reporter fluorescence in data set [1] was found to be 0.0762 ± 0.0028; in data set [2] (ligand: 1 µM Pb) it was 0.146 ± 0.018; in data set [2] (ligand: 30 µM Zn), 0.618 ± 0.011.

G128I D131E: the sfGFP reporter fluorescence in data set [1] was 0.0825 ± 0.0029; in data set [2] (ligand: 1 µM Pb), 0.203 ± 0.022; in data set [2] (ligand: 30 µM Zn), 1.34 ± 0.037.

Consider D64K D131L, for which the sfGFP reporter fluorescence stood at 0.176 ± 0.017 in data set [1], 0.513 ± 0.098 in data set [2] (ligand: 1 µM Pb) and 1.89 ± 0.093 in data set [2] (ligand: 30 µM Zn).

For P15A P61L, the figures for the sfGFP reporter fluorescence in data set [1], in data set [2] (ligand: 1 µM Pb) and in data set [2] (ligand: 30 µM Zn) were 0.0735 ± 0.0017, 0.0722 ± 0.0038 and 0.0794 ± 0.002, respectively.

For the variant P15A P61N, the sfGFP reporter fluorescence in data set [1] was determined as 0.0831 ± 0.0029; in data set [2] (ligand: 1 µM Pb), 0.12 ± 0.017; in data set [2] (ligand: 30 µM Zn), 0.573 ± 0.031.

For P29L, the sfGFP reporter fluorescence was 0.0608 ± 0.0015 in data set [1], 0.0704 ± 0.0041 in data set [2] (ligand: 1 µM Pb) and 0.213 ± 0.0041 in data set [2] (ligand: 30 µM Zn).

In the case of D64K N83T D131S, the sfGFP reporter fluorescence in data set [1] amounted to 0.0698 ± 0.0016; in data set [2] (ligand: 1 µM Pb), 0.29 ± 0.022; in data set [2] (ligand: 30 µM Zn) it was 1.03 ± 0.022.

For the variant M84A G124A, the values for the sfGFP reporter fluorescence in data set [1], in data set [2] (ligand: 1 µM Pb) and in data set [2] (ligand: 30 µM Zn) were 0.0619, 0.064 ± 0.0056 and 0.143 ± 0.0022, respectively.

On to D64A E94R, for which the sfGFP reporter fluorescence came to 0.0816 ± 0.0051 in data set [1], 0.179 ± 0.013 in data set [2] (ligand: 1 µM Pb) and 1.44 ± 0.18 in data set [2] (ligand: 30 µM Zn).

For the variant N83T L107C G128M D135A, the values for the sfGFP reporter fluorescence in data set [1], in data set [2] (ligand: 1 µM Pb) and in data set [2] (ligand: 30 µM Zn) were 0.561 ± 0.031, 1.15 ± 0.069 and 2.06 ± 0.28, respectively.

In the case of I97S K104V, the sfGFP reporter fluorescence in data set [1] turned out to be 0.0836 ± 0.0026; in data set [2] (ligand: 1 µM Pb), 0.247 ± 0.016; in data set [2] (ligand: 30 µM Zn) it was 0.825 ± 0.05.

These data come from the supplement of paper PMC12783771.
